Bridge positions count the residues as written; N and C are the ends. Square brackets hold non-standard residues; d marks the D form. Primed or numbered codes have the meaning given here. Ends that are not written are not given here. * marks the point of attachment. DOTA = O=C(O)CN1CCN(CC(=O)O)CCN(CC(=O)*)CCN(CC(=O)O)CC1; Biotin = O=C1N[C@H]2[C@H](CS[C@H]2CCCCC(=O)*)N1; PEG4′ = polyethylene glycol (PEG4) linker; Lys(Me3) = C[N+](C)(C)CCCC[C@H](N)C(=O)O; PEG4 = NCCOCCOCCOCCOCCC(=O)O
T1: human Nectin-4 (Homo sapiens, UniProt Q96NY8)
T1 sequence (Q96NY8 32-510): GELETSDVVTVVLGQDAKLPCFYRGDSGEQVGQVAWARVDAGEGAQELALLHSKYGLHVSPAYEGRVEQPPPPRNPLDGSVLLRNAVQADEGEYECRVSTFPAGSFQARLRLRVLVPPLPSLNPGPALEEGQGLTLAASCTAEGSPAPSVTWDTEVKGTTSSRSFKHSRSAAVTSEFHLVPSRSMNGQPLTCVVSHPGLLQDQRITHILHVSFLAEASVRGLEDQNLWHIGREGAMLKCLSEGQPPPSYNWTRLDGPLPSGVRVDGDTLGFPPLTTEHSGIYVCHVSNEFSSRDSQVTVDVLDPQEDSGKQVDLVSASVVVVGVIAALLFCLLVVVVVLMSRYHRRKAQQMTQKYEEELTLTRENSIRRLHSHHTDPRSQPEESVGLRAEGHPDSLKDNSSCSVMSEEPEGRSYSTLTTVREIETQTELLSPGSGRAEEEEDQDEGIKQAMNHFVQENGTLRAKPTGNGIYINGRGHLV

T2: mouse Nectin-4 (Mus musculus, UniProt Q8R007)
T2 sequence (Q8R007 31-508): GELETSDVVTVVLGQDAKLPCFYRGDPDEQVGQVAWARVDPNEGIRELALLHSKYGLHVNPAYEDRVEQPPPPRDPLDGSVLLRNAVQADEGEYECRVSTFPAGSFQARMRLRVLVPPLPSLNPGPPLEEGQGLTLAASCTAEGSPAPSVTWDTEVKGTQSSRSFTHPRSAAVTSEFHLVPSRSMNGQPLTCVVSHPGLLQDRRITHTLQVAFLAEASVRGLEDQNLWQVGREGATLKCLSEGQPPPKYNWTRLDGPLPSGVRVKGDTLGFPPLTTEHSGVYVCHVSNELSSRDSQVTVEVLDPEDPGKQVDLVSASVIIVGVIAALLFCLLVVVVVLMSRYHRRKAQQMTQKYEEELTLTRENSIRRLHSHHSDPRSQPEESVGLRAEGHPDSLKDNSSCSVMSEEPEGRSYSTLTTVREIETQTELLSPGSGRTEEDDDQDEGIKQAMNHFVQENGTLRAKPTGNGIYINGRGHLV

T3: Human Nectin-4 (human, UniProt Q96NY8 32-349, limits assumed)
T3 construct: Amine-coupled to the Biacore chip; also called target protein; ligand
T3 sequence: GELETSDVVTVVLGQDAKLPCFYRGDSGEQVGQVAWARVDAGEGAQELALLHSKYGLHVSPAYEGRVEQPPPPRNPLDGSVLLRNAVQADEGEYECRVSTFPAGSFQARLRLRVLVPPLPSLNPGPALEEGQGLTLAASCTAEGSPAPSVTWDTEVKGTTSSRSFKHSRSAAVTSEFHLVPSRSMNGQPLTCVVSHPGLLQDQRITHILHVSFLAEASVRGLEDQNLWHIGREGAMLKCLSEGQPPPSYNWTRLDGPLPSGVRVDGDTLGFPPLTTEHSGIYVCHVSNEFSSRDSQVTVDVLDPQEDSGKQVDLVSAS


Experiments:
[1] = in vivo; details: female, athymic nude, mouse, tumor (HT1376 xenograft), total radioactivity
Protocol: In-111 labeling of miniproteins with MES buffer: In-111 was neutralized with 0.5 M MES buffer pH 5.5. This mixture was added to miniproteins prepared at 2 mg/mL in water with an equivalent amount of 0.5 M MES buffer pH 5.5, in a 1.5 mL Eppendorf vial and heated at 37° C. for 60 minutes. After the reaction, an HPLC sample was taken and an equivalent amount of 10 mM DTPA in 0.1 M ammonium acetate pH 5 was added and incubated for at least 15 minutes. The sample was then used for HPLC analysis.
In-111 labeling of miniproteins with Sodium Acetate buffer: In-111 was neutralized with 0.1 M sodium acetate buffer pH 5. […] After the reaction, an HPLC sample was taken and an equivalent amount of 10 mM DTPA in 0.1 M ammonium acetate pH 5 was added and incubated for at least 15 minutes. The sample was then used for HPLC analysis.
Purification of ^111In-miniproteins: Purification was done on two of the crude reaction mixtures mixed with 10 mM DTPA in 0.1 M ammonium acetate pH 5 and incubated for 15 minutes. A 3 kDa 0.5 mL Amicon filter was used for purification and the filter was spun at 15,000 RCF for 9 minutes. Saline was used as a formulation buffer.
Animals: Female athymic nude mice (6-8 weeks of age) were purchased from Charles River Laboratories and housed according to IACUC guidelines with ad libitum feeding. Biodistribution imaging experiments were performed on both null and tumor bearing athymic nude mice. Tumor xenograft models were generated by inoculating mice subcutaneously with 3×10^6 HT1376 cells, in 200 μL (50:50 PBS/Matrigel) in the right shoulder or right flank. Tumors were monitored for 14 days prior to SPECT/CT imaging dates. Mice with tumor volumes between 150 mm^3 and 250 mm^3 were selected for study inclusion and randomized to treatment arms. An excess of 60% of required imaging study mice were inoculated with tumor cells to ensure enough mice with appropriate tumor ranges were generated.
Animal grouping and Treatment: Animals were monitored for body weight bi-weekly and at the time of experimentation, grouped into groups of n=3. Animals were administered test-agents (TAs) that were prepared as described above. Animals received one of two standard injected dose activates and mass dose injections, depending at which site imaging studies were performed. • Site-1: 350 μCi of activity (^111In) at approximately […] peptide per mouse. • Site-2: 30MBq ([…]) of activity (^111In) at approximately 1 nM ([…]) of total peptide per mouse.
Animal imaging: Animals were sedated using isoflurane gas and imaged in a 3 bed hotel using a NanoScan SPECT/CT scanner. Animals were imaged at timepoints between 10 mins and 72 h post-dosing via SPECT scan, followed by CT scans. Details of the image process and analysis are described in Example 11.
Image Processing: Images were generated as SPECT/CT pair with the SPECT reported in units of activity. Namely, the values assigned to the voxels (volume elements) comprising the SPECT images were in units of μCi. SPECT images were co-registered to the CT scan for anatomical reference, resampled to 0.2 mm^3 voxels, masked to remove the CT background, and cropped to a uniform size prior to analysis.
Estimating tissue uptake: Regions of interest (ROIs) were defined using VivoQuant software. The kidneys and bladder were segmented as fixed volume phantoms and registered using the CT for anatomical reference. Two fixed volume spheres were used to create the liver ROI. Spheres were placed at appropriate anatomical locations based on CT and SPECT signal. Group and individual master spreadsheets were generated which included the volume, activity, and concentration (Activity/Volume) at each time point for each ROI generated. Additionally, plots of activity were generated using Matplotlib based python tools to highlight trends in the data.

[2] = target: T1, human Nectin-4; test: Surface plasmon resonance (Biacore T200) binding to human Nectin-4; details: human Nectin-4, 1:1 binding model, twenty-five degrees Celsius
Protocol: (§1) Peptide binding affinity to the target protein was measured by SPR using a Biacore T200 instrument. The target protein was covalently coupled to a Biacore chip surface using free amine-coupling chemistry (NHS/EDC) and all uncoupled sites were blocked with ethanolamine. Free peptides were flowed over the target protein surface in increasing concentrations to measure association (KA) and dissociation ([…]) to calculate the equilibrium dissociation constant (KD) using an appropriate binding model (see, e.g., Nikolas Stroth, J Biol Methods. 2016; 3 (1)).
(§2) In all figures (FIGS. 1A, 1B, 2A, and 2B), lines on graphs are labeled from top to bottom, beginning with letter “a,” and the corresponding concentration is noted to the right of the figure, next to the letter designating each line.
Surface plasmon resonance (SPR) analyses were performed using Biacore T200 (GE Healthcare). Target protein (“ligand”) was immobilized to a CM5 Series S sensor chip (Cytiva) using amine-coupling chemistry. Running buffer was 0.05% Surfactant P20 in HEPES buffered saline (HBS-P), pH 7.4 (Cytiva). Immobilization was performed at 25° C. Carboxyl groups in each flow cell were activated using a 1:1 mixture of 0.4 M 1-ethyl-3-(3-dimethylaminopropyl)-carbodiimide in water (EDC) and 0.1 M N-hydroxysuccinimide in water (NHS) for 7 minutes. The ligand was prepared in 10 mM Sodium acetate pH 5 (Cytiva). Pulsatile injections were made to target a specific immobilization level. Any remaining amine-reactive esters on the chip surface were blocked with a 7-minute injection of 1 M ethanolamine, pH 8.5. Three 10-second pulses of 50 mM Sodium hydroxide were then made to remove any unbound ligand. Reference cells were modified using amine coupling chemistry, omitting ligand injection.
Increase in signal (RU) is proportional to an increase in binding events between the analyte and ligand surface. The injection was then stopped, and dissociation was measured. The resulting sensorgram has reference surface and blank injection subtracted prior to curve fitting. Measured association (ka, 1/M^s−1) and dissociation (kd, s^−1) were fit to a 1:1 binding model to calculate an equilibrium dissociation constant, KD(M) for each analyte. Equilibrium binding constants (KD) and binding inhibition constants (Ki) estimated from surface plasmon resonance (SPR) or DELFIA® binding assays for exemplary compounds as set forth in Table 2A.
In this example, affinity for mouse Nectin-4 (FIG. 3A) and human Nectin-4 (FIG. 3B) were measured using a 1:1 binding model at twenty-five degrees Celsius. In both of FIGS. 3A and 3B, lines on graphs were labeled from top to bottom, beginning with letter a, and the corresponding concentration was noted to the right of the figure.

[3] = target: T2, mouse Nectin-4; test: Surface plasmon resonance (Biacore T200) binding to mouse Nectin-4; details: 1:1 binding model, twenty-five degrees Celsius
Protocol: as §1, §2
Surface plasmon resonance (SPR) analyses were performed using Biacore T200 (GE Healthcare). Target protein (“ligand”) was immobilized to a CM5 Series S sensor chip (Cytiva) using amine-coupling chemistry. Running buffer was 0.05% Surfactant P20 in HEPES buffered saline (HBS-P), pH 7.4 (Cytiva). Immobilization was performed at 25° C. Carboxyl groups in each flow cell were activated using a 1:1 mixture of 0.4 M 1-ethyl-3-(3-dimethylaminopropyl)-carbodiimide in water (EDC) and 0.1 M N-hydroxysuccinimide in water (NHS) for 7 minutes. The ligand was prepared in 10 mM Sodium acetate pH 5 (Cytiva). Pulsatile injections were made to target a specific immobilization level. Any remaining amine-reactive esters on the chip surface were blocked with a 7-minute injection of 1 M ethanolamine, pH 8.5. […]
Increase in signal (RU) is proportional to an increase in binding events between the analyte and ligand surface. The injection was then stopped, and dissociation was measured. […] Measured association (ka, 1/M^s−1) and dissociation (kd, s^−1) were fit to a 1:1 binding model to calculate an equilibrium dissociation constant, KD(M) for each analyte. […]
In this example, affinity for mouse Nectin-4 (FIG. 3A) and human Nectin-4 (FIG. 3B) were measured using a 1:1 binding model at twenty-five degrees Celsius. […]

[4] = target: T3, Human Nectin-4; test: SPR (Biacore), Nectin-4 immobilised

Molecule	tissue uptake at 4 h [1] [%ID/g]	Kd [4] [nM]	also measured
{DOTA-PEG4}-CEYDEEFFTALKRLRGGDICYYIQAKFQYLPKLCIEEILDNLGCS (disulfide 1-34, 20-44) [Compound C117]	2.29	–	–
{DOTA-PEG4}-CEYDEEFFAGLKRLRGGDICYYIKKKFDKVPDLCIEEILDKLGC-OH (disulfide 1-34, 20-44) [Compound C91]	–	–	kd (dissociation) [2]: 0.02966 s⁻¹; kd (dissociation) [3]: 0.02817 s⁻¹
{DOTA-PEG4}-CEYDEEFFTALKRLRGGDICYYIQKAFQYLPGLCIEEILDNLGCS (disulfide 1-34, 20-44) [Compound C121]	2.03	–	–
Ac-CEYDEEFFAGLKRLRGGDICYYIKKKFDKVPDLCIEEILDKLGC-OH (disulfide 1-34, 20-44) [Compound C9]	–	–	kd (dissociation) [2]: 0.02271 s⁻¹; kd (dissociation) [3]: 0.02134 s⁻¹
{DOTA-PEG4}-CEYDEEFFTALSRLRGGDICYYIQQAFQYLPGLCIEEILDNLGCS (disulfide 1-34, 20-44) [Compound C133]	1.29	–	–
{DOTA-PEG4}-CEYDEQFFTALKALRGGDICYYIQASFNYLPDLCIEEILDNLGCS (disulfide 1-34, 20-44) [Compound C113]	1.65	–	–
{DOTA-PEG4}-CEYDEQFFTALARLRGGDICYYIQEQFATVPGLCIEEILDQLGCS (disulfide 1-34, 20-44) [Compound C129]	1.77	–	–
{DOTA-PEG4}-CEYDEQFFTALSSLRGGDICYYIQEQFANVPGICIEEILDNLGCS (disulfide 1-34, 20-44) [Compound C137]	1.12	–	–
{DOTA-PEG4}-CEYDEEFFAGLKRLRGGDICYYIKKKFDKVPDLCIEEILDKLGC (disulfide 1-34, 20-44) [Compound C12]	–	–	kd (dissociation) [2]: 0.01697 s⁻¹; Kd ([2]; read-out: KD): 10.5 nM; kd (dissociation) [3]: 0.02625 s⁻¹
{Biotin-PEG4′}-CEYDEEFFTALKRLRGGDICEYIQA[Lys(Me3)]FQYLPGLCIEEILDNLGCS-OH (designed binder, disulfide 1-34, 20-44) [C201]	–	0.68	–
H-CEYDEEFFAGLKRLRGGDICYYIKKKFDKVPDLCIKEILDKLGC-OH (designed binder, disulfide 1-34, 20-44) [C3]	–	9.68	–
CEYDEEFFAGLKRLRGGDICYYIKKKFDKVPDLCIEEILDKLGC-OH (designed binder, disulfide 1-34, 20-44) [C7]	–	5.5	–
H-CEDDFQFFADLKRLRGGDICYYIRLKFDKVPDLCIKEILDKLGC-OH (designed binder, disulfide 1-34, 20-44) [C4]	–	14.4	–
H-CEDDGEYFAGLQRLYGGDICYYIKLKFPKVPDLCIKEILDKLGC-OH (designed binder, disulfide 1-34, 20-44) [C1]	–	184	–

Source: patent US20260034253A1, “NECTIN-4 MINIPROTEIN CONJUGATES” (Aktis Oncology, Inc., priority 2022, published 2026)
